T1: in vitro translated 35S-labeled CBP (1621-1877) (UniProt P45481 1621-1877)
T1 construct: also called in vitro translated CBP II
T1 sequence (looked up): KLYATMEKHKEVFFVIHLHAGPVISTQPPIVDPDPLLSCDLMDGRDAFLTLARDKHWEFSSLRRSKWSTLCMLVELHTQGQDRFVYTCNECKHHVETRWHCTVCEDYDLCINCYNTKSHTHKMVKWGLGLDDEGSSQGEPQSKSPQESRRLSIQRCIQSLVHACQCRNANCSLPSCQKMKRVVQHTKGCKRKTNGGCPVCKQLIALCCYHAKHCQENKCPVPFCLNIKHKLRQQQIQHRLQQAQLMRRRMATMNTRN

T2: GST-E6AP (UniProt Q05086 24-875)
T2 sequence: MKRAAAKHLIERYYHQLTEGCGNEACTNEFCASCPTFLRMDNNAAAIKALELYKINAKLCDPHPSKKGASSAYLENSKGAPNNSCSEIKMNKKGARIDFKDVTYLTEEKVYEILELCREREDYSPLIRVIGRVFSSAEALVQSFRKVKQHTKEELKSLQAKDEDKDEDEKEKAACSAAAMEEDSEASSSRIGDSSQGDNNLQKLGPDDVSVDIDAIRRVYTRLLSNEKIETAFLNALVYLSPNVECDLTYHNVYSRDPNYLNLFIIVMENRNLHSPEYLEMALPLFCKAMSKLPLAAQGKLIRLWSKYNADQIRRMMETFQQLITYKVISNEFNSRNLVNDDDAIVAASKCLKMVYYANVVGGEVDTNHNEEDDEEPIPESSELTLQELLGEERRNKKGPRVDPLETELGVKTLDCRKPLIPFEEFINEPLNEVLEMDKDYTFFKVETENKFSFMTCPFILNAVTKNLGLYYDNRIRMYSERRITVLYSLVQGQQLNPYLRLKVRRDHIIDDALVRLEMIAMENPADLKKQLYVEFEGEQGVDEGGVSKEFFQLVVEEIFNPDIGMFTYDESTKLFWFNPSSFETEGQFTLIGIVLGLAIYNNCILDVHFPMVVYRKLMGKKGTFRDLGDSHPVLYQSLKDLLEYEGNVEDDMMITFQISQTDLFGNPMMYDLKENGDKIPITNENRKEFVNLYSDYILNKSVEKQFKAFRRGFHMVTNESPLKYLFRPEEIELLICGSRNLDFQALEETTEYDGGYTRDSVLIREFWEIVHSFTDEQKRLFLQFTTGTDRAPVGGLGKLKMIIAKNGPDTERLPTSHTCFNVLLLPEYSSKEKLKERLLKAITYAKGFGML

T3: GST-CBP fusion protein (CBP residues not stated) (UniProt P45481 1621-1877)
T3 sequence: T1 sequence (looked up)

T4: in vitro translated radiolabeled TFIIB (UniProt Q00403 1-316)
T4 sequence (looked up): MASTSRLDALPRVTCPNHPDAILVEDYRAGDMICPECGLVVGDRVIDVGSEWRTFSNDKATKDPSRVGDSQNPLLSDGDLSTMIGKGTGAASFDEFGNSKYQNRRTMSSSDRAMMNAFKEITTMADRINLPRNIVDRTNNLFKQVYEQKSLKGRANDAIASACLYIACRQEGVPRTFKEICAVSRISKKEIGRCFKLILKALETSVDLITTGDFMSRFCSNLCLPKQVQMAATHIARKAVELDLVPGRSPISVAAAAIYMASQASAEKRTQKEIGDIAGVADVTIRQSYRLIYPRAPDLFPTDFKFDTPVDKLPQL

T5: GST-CBP I (residues 461-662) (UniProt P45481 461-662)
T5 construct: range 461-662; also called GST-CBP I (461-662)
T5 sequence: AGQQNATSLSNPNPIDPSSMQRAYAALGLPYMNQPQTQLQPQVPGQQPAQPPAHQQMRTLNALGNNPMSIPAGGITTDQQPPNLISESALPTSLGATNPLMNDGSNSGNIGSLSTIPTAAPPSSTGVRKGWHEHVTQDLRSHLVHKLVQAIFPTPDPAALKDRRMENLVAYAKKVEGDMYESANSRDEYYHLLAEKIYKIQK

T6: GST-CBP II (residues 1621-1877) (UniProt P45481 1621-1877)
T6 construct: also called GST-CBP II domain
T6 sequence: T1 sequence (looked up)

B1: MBP-CBP (residues 1808-1852) fusion protein (other)
chain: GCKRKTNGGCPVCKQLIALCCYHAKHCQENKCPVPFCLNIKHKLR
notes: Bacterially expressed
B2: GST-6E6 (other)
chain: MESANASTSATTIDQLCKTFNLSMHTLQINCVFCKNALTTAEIYSYAYKHLKVLFRGGYPYAACACCLEFHGKINQYRHFDYAGYATTVEEETKQDILDVLIRCYLCHKPLCEVEKVKHILTKARFIKLNCTWKGRCLHCWTTCMEDMLP
notes: mature
B3: GST-11E6 (other)
chain: MESKDASTSATSIDQLCKTFNLSLHTLQIQCVFCRNALTTAEIYAYAYKNLKVVWRDNFPFAACACCLELQGKINQYRHFNYAAYAPTVEEETNEDILKVLIRCYLCHKPLCEIEKLKHILGKARFIKLNNQWKGRCLHCWTTCMEDLLP
B4: in vitro translated HPV-11 E6 protein (other)
chain: B3 chain
notes: mature
B5: GST-16E6 C-terminal half (85-151) (other)
chain: GTTLEQQYNKPLCDLLIRCINCQKPLCPEEKQRHLDKKQRFHNIRGRWTGRCMSCCRSSRTRRETQL
B6: GST-16E6 (amino acids 100-147) (other)
chain: LIRCINCQKPLCPEEKQRHLDKKQRFHNIRGRWTGRCMSCCRSSRTRR
B7: GST-16E6 N-terminal half (1-84) (other)
chain: MFQDPQERPRKLPQLCTELQTTIHDIILECVYCKQQLLRREVYDFAFRDLCIVYRDGNPYAVCDKCLKFYSKYSEYRHYCYSLY
B8: GST-Mdm2 (466-484) (other, human, UniProt Q00987 466-484, looked up, not shown: a dimerising Fc or GST)
chain: KKLKKRNKPCPVCRQPIQM
notes: also called wild type Mdm2 TRAM; Mdm2 TRAM
B9: GST-16E6 without C-terminal residues 148-151 (other)
chain: MFQDPQERPRKLPQLCTELQTTIHDIILECVYCKQQLLRREVYDFAFRDLCIVYRDGNPYAVCDKCLKFYSKYSEYRHYCYSLYGTTLEQQYNKPLCDLLIRCINCQKPLCPEEKQRHLDKKQRFHNIRGRWTGRCMSCCRSSRTRR
B10: GST-CBP (1808-1826) (other, UniProt P45481 1808-1826, looked up, not shown: a dimerising Fc or GST)
chain: GCKRKTNGGCPVCKQLIAL
notes: also called CBP TRAM
B11: in vitro translated and radiolabeled HPV-16 E6 (other)
chain: MFQDPQERPRKLPQLCTELQTTIHDIILECVYCKQQLLRREVYDFAFRDLCIVYRDGNPYAVCDKCLKFYSKYSEYRHYCYSLYGTTLEQQYNKPLCDLLIRCINCQKPLCPEEKQRHLDKKQRFHNIRGRWTGRCMSCCRSSRTRRETQL
B12: GST-16E6 (other)
chain: B11 chain
B13: in vitro translated HPV-16 E6 L50G protein (other)
chain: B11 chain with L50G

Residue numbers refer to the chain shown, from its start. Numbers in names are those of the source.

The target in the assay “GST-16E6” is B12. Briefly: GST micro-affinity column, purified recombinant proteins, western blot.
For assay [1], the target named is T1, in vitro translated 35S-labeled CBP …. Briefly: GST-E6 micro-affinity column, IVT CBP II.
The target in a further assay is T2, GST-E6AP. Briefly: GST-E6AP micro-affinity column, IVT E6.
Assay [2] has as its target T3, GST-CBP fusion protein (CBP residues …). Kind of assay: GST-CBP micro-affinity column, IVT E6.
Assay [3] addresses T1, in vitro translated 35S-labeled CBP …. Kind of assay: GST-E6 fragment micro-affinity column.
The target of assay [4] is T4, in vitro translated radiolabeled TFIIB. Kind of assay: GST micro-column pull-down, IVT protein.
For assay [5], the target named is in vitro translated 35S-methionine labelled p53 (wild type) (UniProt P04637 1-393). Briefly: GST micro-column pull-down, IVT protein.
The next assay concerns the target T7, GST (control) (UniProt P08515 1-218 = GST).
T7 construct: also called control GST column; GST alone
Kind of assay: GST micro-affinity column, IVT radiolabelled E6.

The target in assay [6] is T5, GST-CBP I (residues 461-662). Kind of assay: GST micro-affinity column, IVT radiolabelled E6.
Assay [7] has as its target T6, GST-CBP II (residues 1621-1877). Briefly: GST micro-affinity column, IVT E6.
In assay [8] the target is B1. Kind of assay: MBP micro-affinity column, purified recombinant proteins, western blot. On the technique in general: Immunoblotting shows a protein as a band on a membrane.

T7 sequence (P08515 whole entry): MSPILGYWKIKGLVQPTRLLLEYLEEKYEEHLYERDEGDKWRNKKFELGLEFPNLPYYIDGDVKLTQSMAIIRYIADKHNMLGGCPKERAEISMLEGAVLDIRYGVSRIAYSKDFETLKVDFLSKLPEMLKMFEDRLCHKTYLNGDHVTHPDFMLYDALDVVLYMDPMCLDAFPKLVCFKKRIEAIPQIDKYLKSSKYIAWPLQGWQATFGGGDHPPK
Chain of in vitro translated 35S-methionine labelled p53 (wild type) (P04637 whole entry): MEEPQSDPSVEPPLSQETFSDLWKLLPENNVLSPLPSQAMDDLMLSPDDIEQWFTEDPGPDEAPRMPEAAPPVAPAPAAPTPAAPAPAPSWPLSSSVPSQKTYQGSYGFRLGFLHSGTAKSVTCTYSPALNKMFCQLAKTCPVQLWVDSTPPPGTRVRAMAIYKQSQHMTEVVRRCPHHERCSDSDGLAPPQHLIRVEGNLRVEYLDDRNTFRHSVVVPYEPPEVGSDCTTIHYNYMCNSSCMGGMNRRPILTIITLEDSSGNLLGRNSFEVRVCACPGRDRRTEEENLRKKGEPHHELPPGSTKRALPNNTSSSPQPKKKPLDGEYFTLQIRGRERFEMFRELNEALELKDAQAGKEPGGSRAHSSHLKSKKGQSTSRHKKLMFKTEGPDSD

Turning to B1, the binding result with GST-16E6 was “binds”.

Consider B2, for which the binding result in assay [1] is given as “no binding”.

Regarding B3, in assay [1], the binding result is listed as “no binding”.

For the molecule B4, the binding result (with GST-E6AP; in assay [2]) was “no binding” each time.

As to B5, the binding result in assay [3] was “binds”.

Regarding B6, in assay [3], the binding result is reported as “binds”.

On to B7, for which the binding result in assay [3] was “no binding”.

With B8, the binding result in assay [4] and in assay [5] was “binds” in each case.

For B9, the binding result in [3] is recorded as “binds”.

For B10, in assay [4], the binding result is “binds”.

With B11, the binding result in the assay with GST (control) is reported as “no binding”; in [6], “no binding”; in [7], “binds”.

As to B12, the binding result in assay [1] and in assay [8] was “binds” in each case.

As to B13, the binding result in the assay with GST-E6AP is listed as “no binding”.

These data come from patent publication US6864054 (INSTITUTE OF MOLECULAR AND CELL BIOLOGY, dated 2005).
